Assay results: patent US20250084155A1

Columns and labels:
[1] = target: HSP70-GFP (full-length HSP70 fused to GFP) (human) (UniProt P0DMV8); assay: cell-based or functional assay
[2] = target: HSP70 (human HSP70; the antigen of the binning, humanization and variant binding assays) (human) (UniProt P0DMV8); assay: BLI, anti-human Fc capture, antigen 100 nM
HSP70 (human HSP70; the antigen of the binning, humanization and variant binding assays) (human), sequence (P0DMV8 whole entry, change not shown): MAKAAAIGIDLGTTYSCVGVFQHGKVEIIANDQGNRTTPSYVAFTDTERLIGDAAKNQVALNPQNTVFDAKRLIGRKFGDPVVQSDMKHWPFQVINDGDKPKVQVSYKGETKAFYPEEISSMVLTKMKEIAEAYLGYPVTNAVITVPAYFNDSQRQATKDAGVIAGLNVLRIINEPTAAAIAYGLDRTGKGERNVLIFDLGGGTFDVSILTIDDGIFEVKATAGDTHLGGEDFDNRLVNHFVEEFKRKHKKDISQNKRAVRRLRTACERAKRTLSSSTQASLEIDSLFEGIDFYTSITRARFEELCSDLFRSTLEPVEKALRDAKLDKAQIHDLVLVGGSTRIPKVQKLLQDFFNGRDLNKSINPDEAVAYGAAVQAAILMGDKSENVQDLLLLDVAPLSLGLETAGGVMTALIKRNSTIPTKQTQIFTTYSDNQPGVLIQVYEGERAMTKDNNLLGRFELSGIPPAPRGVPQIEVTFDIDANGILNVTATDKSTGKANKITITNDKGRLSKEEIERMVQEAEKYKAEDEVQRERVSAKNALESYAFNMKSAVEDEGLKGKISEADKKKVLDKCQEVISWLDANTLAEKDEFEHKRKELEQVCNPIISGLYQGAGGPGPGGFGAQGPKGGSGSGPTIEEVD

HSP70-GFP (full-length HSP70 fused to GFP) (human), sequence (P0DMV8 whole entry, the tested form may be a part): as the sequence (P0DMV8 whole entry, change not shown) above

B1: murine 77A in a murine IgG2a format (antibody, V domains shown)
VH: QIQLVQSGPELKKPGETVKISCKASGYTFTNYGMNWVKQAPGKGLKWMGWINTYTGEPTYADDFKGRFAFSLETSATTAYLQINNLKNEDTATYFCARYDHAMDYWGQGTSVTVSS
VL: DIVMSQSPSSLAVSAGEKVTMSCKSSQSLLNSGTRKNYLAWYQQKPGQSPKLLIYWTSTRESGVPDRFTGSGSGTDFTLTINSVQAEDLAVYYCKQSYTLYTFGGGTKLEIK
For B1, the % live cells GFP positive, DC3.2 cells [1] was 78.3% and the % live cells GFP positive, MH-S cells [1] was 66%.

B2: murine 77A in a murine IgG2b format (antibody, V domains shown)
VH: B1 VH
VL: B1 VL
With B2 the % GFP positivity, DC3.2 cells [1] was 4.85% and the % GFP positivity, MH-S cells [1] was 16%.

B3: h77A-1.32 (antibody, V domains shown)
VH: QIQLVQSGAEVKKPGASVKVSCKASGYTFTNYGMNWVRQAPGQGLEWMGWINTYTGEPRYADDFKGRFTFTTDTSTSTAYMELRSLRSDDTAVYFCARYDHDMDYWGQGTLVTVSS
VL: EIVLTQSPDSLAVSLGERATINCKSSQSLLNSGTRKNYLAWYQQKAGQSPKLLIYWTSTRESGVPDRFSGSGSGTDFTLTIDSLQAEDVAVYYCKQSYTLYTFGGGTKVEIK
In the case of B3, the % Diss [2] is reported as -80.5%, the X = 610 [2] is reported as 0.0256 nM and the X = 1495 [2] is reported as 0.0462 nM.
